This note sets out measurements from article PMC6016244, “Escherichia coli ZipA Organizes FtsZ Polymers into Dynamic Ring-Like Protofilament Structures” (mBio, 2018).

Data set [1] addresses T1, Alexa Fluor 488-labeled FtsZ (E. coli, UniProt P0A9A6 1-383, Alexa Fluor 488 (succinimidyl ester probe, 1:10 molar ratio); labelled residues not stated).
T1 construct: Cell division protein FtsZ, Escherichia coli; wild type; Same protein as m1, with a fluorescent label; used on supported lipid bilayers; also called FtsZ-Alexa Fluor 488; FtsZ Alexa Fluor 488
T1 sequence (looked up): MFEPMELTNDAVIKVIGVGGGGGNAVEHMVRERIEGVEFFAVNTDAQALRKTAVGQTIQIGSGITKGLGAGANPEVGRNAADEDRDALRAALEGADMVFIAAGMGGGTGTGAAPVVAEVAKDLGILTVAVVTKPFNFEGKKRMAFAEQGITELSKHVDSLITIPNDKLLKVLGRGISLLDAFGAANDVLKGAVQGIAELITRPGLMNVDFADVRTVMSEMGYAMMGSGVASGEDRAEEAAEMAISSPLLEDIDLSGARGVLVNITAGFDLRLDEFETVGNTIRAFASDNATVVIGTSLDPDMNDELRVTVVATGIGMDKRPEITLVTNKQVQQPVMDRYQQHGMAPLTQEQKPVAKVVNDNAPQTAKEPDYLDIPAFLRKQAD
As to the kind of experiment: self-organization assay on supported lipid bilayers, confocal and STED fluorescence microscopy; Alexa Fluor 647-labeled sZipA attached to supported bilayers of E. coli polar lipids with 0.5% NTA lipids (low density); 1 µM FtsZ-Alexa Fluor 488 added, then 2 mM GTP or 0.5 mM GMPcPP; Z-buffer. To be noted: both partners purified.

Data set [2] deals with the molecule itself. As to the kind of experiment: lipid monolayer assay with negative stain electron microscopy; sZipA (1-2 µM) held by its His6 tag on E. coli polar lipid (or DOPC) monolayers with 0.5 to 10% DGS-NTA; FtsZ 0.5 to 5 µM added, then 2 mM GTP or 0.5 mM GMPcPP; Z-buffer (50 mM Tris-HCl pH 7.5, 300 mM KCl, 5 mM MgCl2); control: FtsZ on NTA monolayers without sZipA.

B1: Alexa Fluor 647-labeled sZipA (domain or fragment)
chain: not shown
modifications: Alexa Fluor 647 (succinimidyl ester probe, 1:10 molar ratio); labelled residues not stated
notes: Cell division protein ZipA, Escherichia coli; first 25 amino acids replaced by a His6 tag; Same construct as m2, with a fluorescent label; attached to supported lipid bilayers that contain NTA lipids; also called fluorescent sZipA; not shown: His6, N-terminal, kept
On to B1, for which the binding result in data set [1] was “binds”.

B2: E. coli FtsZ (natural protein, UniProt P0A9A6 1-383, looked up)
chain: MFEPMELTNDAVIKVIGVGGGGGNAVEHMVRERIEGVEFFAVNTDAQALRKTAVGQTIQIGSGITKGLGAGANPEVGRNAADEDRDALRAALEGADMVFIAAGMGGGTGTGAAPVVAEVAKDLGILTVAVVTKPFNFEGKKRMAFAEQGITELSKHVDSLITIPNDKLLKVLGRGISLLDAFGAANDVLKGAVQGIAELITRPGLMNVDFADVRTVMSEMGYAMMGSGVASGEDRAEEAAEMAISSPLLEDIDLSGARGVLVNITAGFDLRLDEFETVGNTIRAFASDNATVVIGTSLDPDMNDELRVTVVATGIGMDKRPEITLVTNKQVQQPVMDRYQQHGMAPLTQEQKPVAKVVNDNAPQTAKEPDYLDIPAFLRKQAD
notes: Cell division protein FtsZ, Escherichia coli; wild type; Unlabelled FtsZ of the lipid monolayer / electron microscopy assays; Polymerised with GTP or GMPcPP; source: plasmid pMFV56 (pET28a-FtsZ)
On to B2, for which the binding result in data set [2] is recorded as “binds”.
